In the nanobody polyreactivity screen of Harvey et al. (2022):

Assay: yeast display, Sf9 membrane polyspecificity reagent, FACS + sequencing; frameworks hold sequencing errors
How it was run: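 Polyreactivity labels are assigned by the sorting gate from which each nanobody was recovered. The gates were low and high (top ~1%), set on anti-HA fluorescence for expression and streptavidin fluorescence for reagent binding. Before sorting, galactose-induced (36–48 hours) yeast display cells were stained for 1 hour at 4 °C with 10% biotinylated, detergent-solubilized Sf9 membrane reagent.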

Sequence | polyreactivity (PSR sort gate)
QVQLVESGGGLVQAGGSLRLSCAASGRTCPYYVMGWFRQAPGKERELVAAIRRTGGSTYYADSVKGRFTISRDNAKNTVYLQMNSLKPEDTAVYYFTKSHSILYEGGYDYWGQGTQVTVSS | low polyreactivity
QVQLVESGGGLVQAGGRLRISFAATGITSGRYAMGGYRQAPGNERELVAAISNSGGSTYYADSVKGRFTISRDNAKNTVYLQMNSLKPEDTAVYYCAARSASSRMDYWGQGTQVTVSS | high polyreactivity
QVQLVESGGGLVQAGGSLRLSCAASGGIFYYYTMGWYRQAPGKERELVAVISSSGSTYYADSVKGRFTISRDNAKNTVYLQMNSLKPEDTAVYYCNALGWYGDYDYWGQGTQVTVSS | low polyreactivity
QVQLVESGGGLVQAGGSLRLSCDASGLTFAYYAMGWYRQAPGKERELVAAISSSGGRTYYADSVKGRFTISRDNAKNTVYLQMNSLKPEDTAVYYCAKSRYSTQTDYNYWGQGTQVTVSS | high polyreactivity
QVQLVESGRGIVQAGGSLRLSCAASGRIFYLNAMGWYRQAPGKERELVAAITRSAASTHYADSVKGRFTISRDNAKNTVYVQMNSLKPEDTAVYYCAARFWYDYRHYDYWGQGTQVTVSS | low polyreactivity
QVQLVESGGGLVQAGGSLRLSCAASGSTFGLYVMGWYRQAPGKERELVAAINRICSRTYYADSVKGRFTISRDNAKNTVYLQMNSLKPEDTAVYYCAADYDYTSPGDDYWGQGTQVTVSS | high polyreactivity
QVQLVEAGGGLVQAGGTLRLSCAASGSNFSENTMGWYRPAPGKKRELVADITSGGSTNYADSVKGRFTISRDNAKNTVYLQMNSMKAEVTAVYYCAADYNGEYDYWGQGSQVTVSS | low polyreactivity
QVQLVESGGGLVQAGGSLRLSCAASGRTFFVYAMGWYRQAPGKERELVASITLSGGSTYYADSVKGRFTISRDNAKNTVYLQMHSLKPEDTAVYYCAKGWSRDNDREREDEYWGQGTQVTVSS | low polyreactivity
QVQLVESGGGLVQAGGSLRLSCAASGSSFSPYAMGWYRQAPGKERELVAAINSGSSTNYADSVKGRFTISRDNAKNTVYLQMNSLQPEDTAVYYCAADGQLPPRGILASWEFDYWGQGTQVTVSS | low polyreactivity
QVQLEESGGGLVQAGGSLRLSCAASRSTLDGYAMGWYRQAPGKERELVDAITFSGGITYYADSVKVRFTISRDNAKNTVYLQMNILKPEDTAVYYCAADISTWTTWSGTEYDYLGQGTQVTVSS | low polyreactivity
QVQLVESGGGLVQAGGSLRLSCAASGRTFWKNTMGWYSQAPGKERELVAVISSGGVSTSYADSVTGRFTISRDKATNTVYLHMNSLKPEDTAVYYCAADGYYIGPYDYWGQGTQVTVSS | low polyreactivity
QVQLVESGGGLVQAGGSLRLSCAASGFIFTLYTMGWYRPAPGKERELVAAISGRGGYTYYADSVKGRFTISRDNAKNTVYLHMNSLKPEDTAVYYCARAAYGFRARSGGDYWGQGTQVTVSS | high polyreactivity
QVQLVESGGGLVQAGGSLRLSCAASGRTFYANAMGWYRQAPGKERELVAAITYRGGSTNYADSVKGRFTISRDNAKNTVYLQMNSLKPEDTAVYYCAKVYNPNYLWYLTYGYDYWGQGTQVTVSS | low polyreactivity
QVQLVESGGGLVQAGGSLRLSCAASGRIFGVNAMGWYRQAPGKERELVAAISVSGDSTYYADSVKGRFTISRDNAKNTVYLQMNSLKPEDTAVYYCNAGFTFVPADLTDEYYWGQGTQVTVSS | low polyreactivity
QVQLVESGGGLVQEGGSLRLSCAASGRTFWQNAMGWYRQAAGKERELVAAIRIGGSTNYAVSVKGRFTISRDNAKNTVYLQMNSLKPEYTAFYYCAARRGYYSRNDYWGQVTQVTVSS | high polyreactivity
QVQLVESGGGLVQAGGSLRLSCAASGRTFQYNAMGWNRQAPGKERELVAAISWSDGITYYADSVKGRFTISRDNAKNTVFLQMNSLKPEDTAVYYCAAEGYGLSYYFPYDYWGQGTQVTVSS | high polyreactivity
QVQLVESGGGLVQAGGSLRLSCAASGRTSWVNAMGWYRQAPGKERELVAAIVSGGTTKYADSVKGRFTISRDNAKNTVYLQMNSLKPEDTAVYYCAVRYSKRSVYTYGFNYWGQGTQVTVSS | high polyreactivity
QVQLVESGGGLLQAGGSLRLSCPASGRIFDPYTMGSYRQAPGKERELVARITRRGGRTYYADSVKGRFTISRDNAKNTVYLQMNSLKPEDTAVYYCNADFSYRYYGAYDDWGQGTQVTVSS | high polyreactivity
QVQLVESGGGLVQAGGSHRLSCAASGLNFGDNTMGWYRQAPGKERELVAAISGDVITTYADSVKGRFTISRDNAKNTVYLQMNSLKPEDTAVYYCNAEVKRYYSGLPQYFAGLGYWGQGTQVTVSS | low polyreactivity
QVQLVESGGGLVQAGGSLRVICAASGIIFPIYAMGWYRQAPGKEWELVAGISTGGGGTYYADSVKGRFTISRDNAKNTVYLQKNSLKPEDTAVYYCNVDAAGSNSHARHDSWGQGTQVTVSS | low polyreactivity
QVHLVESGGGLVQAGGSLRLSCAASGFTFYYYAMGWYRQAPGKERELVAAISDSGGITYYADSVKGRFTISRDNAKNTVYLQMNSLKPEDTAVYYCAADFATPGPEYDYWGQGTQVTVSS | low polyreactivity
QVQLVESGGGLVQAGGSLRLSCAASGSTVPQYTMGWYRQAPGKERELVAAITKSGGSTYYADSVKGRFTISRDNAKNTVYLQMNSLKPEDTAVYYCNRRWGWRLYDYWGQGTQVTVSS | high polyreactivity
